Drawing on paper PMC6697681, “The predominance of nucleotidyl activation in bacterial phosphonate biosynthesis” (Nature Communications, 2019), this text covers Km, kcat and kcat/Km for 2 substances.

The subject of data set [1] is C[N+](C)(C)CCOP(=O)([O-])O. Put plainly: purified protein. The following applies: saturating CTP (4 mM), 7 mM MgCl2, room temperature; fit with substrate inhibition.
The next data set deals with NCCP(=O)(O)O. In words: purified protein. The following applies: saturating CTP (4 mM), 7 mM MgCl2, room temperature.

On to “Ari-PntC (Ari1348) (Lancefieldella rimae ATCC 49626)”, for which, in data set [1], the Km was 1000 ± 800 µM, the kcat worked out at 0.7 ± 0.3 s⁻¹ and the kcat/Km came to 720 M⁻¹ s⁻¹. For the same substance, the Km with NCCP(=O)(O)O was 12 ± 1 µM.
In the case of Spn-LicC (Streptococcus pneumoniae R6), in data set [1], the Km is listed as 2.36 ± 0.65 µM and the kcat came to 1.06 ± 0.04 s⁻¹. In addition, in the data set with NCCP(=O)(O)O, the Michaelis-Menten constant (Km) is listed as 318 ± 129 µM and the turnover number (kcat) was determined as 0.723 ± 0.054 s⁻¹.
